Experimental findings from patent US20050260733A1, “Proteases and uses thereof” (WYETH, priority 2004, published 2005) are described below.

The target of experiment [1] is undigested bovine aggrecan (bovine) (UniProt P13608). Description: cell-based or functional assay.
For experiment [2] the target is unchanged. The experiment in a line: cell-based or functional assay. The source holds these as a separate data set.

Read-outs that look alike come from different tables or passages of the source.

undigested bovine aggrecan (bovine), sequence (P13608 20-2364): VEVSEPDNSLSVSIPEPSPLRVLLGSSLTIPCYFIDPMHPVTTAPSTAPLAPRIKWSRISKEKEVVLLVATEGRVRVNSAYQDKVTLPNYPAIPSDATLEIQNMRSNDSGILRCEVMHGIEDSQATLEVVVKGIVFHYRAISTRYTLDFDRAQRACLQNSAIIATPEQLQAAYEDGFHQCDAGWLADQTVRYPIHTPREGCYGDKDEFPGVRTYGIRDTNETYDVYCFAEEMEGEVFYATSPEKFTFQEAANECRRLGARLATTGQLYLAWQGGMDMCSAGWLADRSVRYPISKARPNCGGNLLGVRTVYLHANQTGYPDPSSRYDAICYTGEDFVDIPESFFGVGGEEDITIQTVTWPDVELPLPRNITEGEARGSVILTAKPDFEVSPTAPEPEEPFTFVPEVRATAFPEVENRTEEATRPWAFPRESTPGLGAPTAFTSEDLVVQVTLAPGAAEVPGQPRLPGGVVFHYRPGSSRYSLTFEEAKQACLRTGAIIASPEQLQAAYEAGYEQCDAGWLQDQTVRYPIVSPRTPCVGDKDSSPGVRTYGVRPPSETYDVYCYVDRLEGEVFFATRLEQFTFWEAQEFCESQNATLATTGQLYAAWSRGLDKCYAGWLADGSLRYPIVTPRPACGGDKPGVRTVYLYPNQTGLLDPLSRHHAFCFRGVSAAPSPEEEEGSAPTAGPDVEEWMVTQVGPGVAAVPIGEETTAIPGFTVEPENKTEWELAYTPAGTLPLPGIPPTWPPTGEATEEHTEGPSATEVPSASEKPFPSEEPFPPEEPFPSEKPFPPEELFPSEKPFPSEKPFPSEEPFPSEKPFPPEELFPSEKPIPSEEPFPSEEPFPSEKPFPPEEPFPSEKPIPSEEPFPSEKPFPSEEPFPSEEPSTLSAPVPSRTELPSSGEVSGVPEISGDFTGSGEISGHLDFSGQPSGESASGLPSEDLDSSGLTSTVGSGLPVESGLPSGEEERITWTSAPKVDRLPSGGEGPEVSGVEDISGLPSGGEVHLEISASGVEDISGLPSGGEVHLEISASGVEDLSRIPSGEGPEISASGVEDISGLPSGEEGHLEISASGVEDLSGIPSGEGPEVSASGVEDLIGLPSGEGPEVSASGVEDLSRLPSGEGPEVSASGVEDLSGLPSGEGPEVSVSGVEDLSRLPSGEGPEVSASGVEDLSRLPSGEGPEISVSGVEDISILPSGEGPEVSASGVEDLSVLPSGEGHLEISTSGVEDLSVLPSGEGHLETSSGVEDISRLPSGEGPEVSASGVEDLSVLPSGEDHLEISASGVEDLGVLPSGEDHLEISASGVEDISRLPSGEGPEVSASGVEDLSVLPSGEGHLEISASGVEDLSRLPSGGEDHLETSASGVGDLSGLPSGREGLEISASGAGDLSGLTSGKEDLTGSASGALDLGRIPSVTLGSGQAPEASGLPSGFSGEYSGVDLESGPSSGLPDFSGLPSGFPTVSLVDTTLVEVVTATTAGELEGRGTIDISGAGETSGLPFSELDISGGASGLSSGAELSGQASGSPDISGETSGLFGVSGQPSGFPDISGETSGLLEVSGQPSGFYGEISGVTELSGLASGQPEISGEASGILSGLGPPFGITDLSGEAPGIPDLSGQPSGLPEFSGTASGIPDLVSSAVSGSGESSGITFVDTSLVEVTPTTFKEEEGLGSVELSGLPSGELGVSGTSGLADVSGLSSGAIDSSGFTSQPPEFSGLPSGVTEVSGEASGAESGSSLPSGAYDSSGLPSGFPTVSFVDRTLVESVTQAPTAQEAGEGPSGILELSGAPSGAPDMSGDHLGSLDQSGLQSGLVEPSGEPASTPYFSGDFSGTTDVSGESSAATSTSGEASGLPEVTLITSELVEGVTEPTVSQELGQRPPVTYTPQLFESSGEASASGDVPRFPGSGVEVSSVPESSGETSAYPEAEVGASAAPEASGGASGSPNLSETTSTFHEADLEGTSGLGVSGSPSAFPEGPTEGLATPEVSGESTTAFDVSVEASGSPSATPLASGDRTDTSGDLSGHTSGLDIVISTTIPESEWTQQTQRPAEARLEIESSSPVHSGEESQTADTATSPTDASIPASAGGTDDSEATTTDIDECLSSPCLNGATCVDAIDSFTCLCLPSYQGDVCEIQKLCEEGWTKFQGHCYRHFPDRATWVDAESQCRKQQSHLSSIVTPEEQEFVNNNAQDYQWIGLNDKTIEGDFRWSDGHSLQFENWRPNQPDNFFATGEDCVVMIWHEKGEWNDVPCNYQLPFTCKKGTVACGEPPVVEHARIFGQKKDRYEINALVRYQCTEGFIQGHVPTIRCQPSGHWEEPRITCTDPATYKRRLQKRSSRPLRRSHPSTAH

“recombinant ADAMTS-4 (from UniProt O75173 213-694) (enzyme)”: the figures for the amount of enzyme needed for 45% inhibition in the competitive inhibition ELISA for aggrecanase activity in experiment [1] and in experiment [2] were 0.0135 pM and 1 ng, respectively.
